Data: article PMC9061725, “GGDEF domain as spatial on-switch for a phosphodiesterase by interaction with landmark protein HubP” (NPJ Biofilms and Microbiomes, 2022)

B1: MBP-GGDEF_(SoPdeB), GGDEF domain of S. oneidensis PdeB, wild type (domain or fragment, UniProt Q8EJM6 454-587, looked up)
chain: RSLAVCYLDLEQFKLINDSCGHTAGDRMLAMVARAIQSCLGPQELLARIGGDEFGLVICDRTALAVAQLLKQIIAQVSLQVLHDKNCNYKVGLSIGVAFGRAPYINAQELLKDADIACIAAKAKGTNQIHIYDD
notes: GGDEF (diguanylate cyclase) domain of the phosphodiesterase PdeB of Shewanella oneidensis; construct limits may stand there; The MBP tag is named for SEC, iSCAMS and pull-down; also called SoGGDEF; SoGGDEF_(PdeB); source: E. coli BL21(DE3), pET24c, purified (His Trap, SEC)

What was measured:
[1] = molecular target: FimV domain of S. putrefaciens HubP (S. putrefaciens)
[2] = molecular target: T1, MshE (Shewanella putrefaciens, UniProt A0ABX8XDM4); test: isothermal titration calorimetry; conditions: 25 °C; one set of binding sites; value only in figure; read-out: dissociation constant
T1 construct: gene tadA; full-length, His-tag purified from E. coli BL21(DE3); strain inferred from locus prefix Sputcn32
T1 sequence (A0ABX8XDM4 1-586): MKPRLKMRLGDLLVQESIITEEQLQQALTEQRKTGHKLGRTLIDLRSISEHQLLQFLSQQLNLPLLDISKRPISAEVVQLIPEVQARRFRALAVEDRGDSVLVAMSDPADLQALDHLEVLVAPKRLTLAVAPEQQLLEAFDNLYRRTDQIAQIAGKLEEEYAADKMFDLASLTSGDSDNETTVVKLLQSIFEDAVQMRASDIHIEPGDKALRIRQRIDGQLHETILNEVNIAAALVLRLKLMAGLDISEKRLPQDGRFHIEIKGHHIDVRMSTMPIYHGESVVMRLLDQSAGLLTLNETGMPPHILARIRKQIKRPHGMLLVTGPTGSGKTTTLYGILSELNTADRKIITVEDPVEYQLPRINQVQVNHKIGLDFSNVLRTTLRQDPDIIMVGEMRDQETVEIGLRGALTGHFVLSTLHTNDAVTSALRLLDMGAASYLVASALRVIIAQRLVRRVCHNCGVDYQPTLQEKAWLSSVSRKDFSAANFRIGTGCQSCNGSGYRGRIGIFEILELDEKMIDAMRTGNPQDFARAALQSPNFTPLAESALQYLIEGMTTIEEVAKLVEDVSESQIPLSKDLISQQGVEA
Text: isothermal titration calorimetry on MshE | both MshE and MshE-N bind c-di-GMP with high affinity

[3] = molecular target: T2, MshE-N (Shewanella putrefaciens, UniProt A0ABX8XDM4); test: isothermal titration calorimetry; conditions: 25 °C; one set of binding sites; value only in figure; read-out: dissociation constant
T2 construct: gene tadA; N-terminal domain aa 2-145, His-tag purified from E. coli BL21(DE3); strain inferred from locus prefix Sputcn32
Text: isothermal titration calorimetry on MshE-N | both MshE and MshE-N bind c-di-GMP with high affinity

[4] = molecular target: T3, FimV domain of S. oneidensis HubP (S. oneidensis, biotinylated with EZ-Link NHS-PEG4-biotin (for the BLI assay only)); test: interferometric scattering mass spectrometry (iSCAMS, mass photometry); MBP-GGDEF_(SoPdeB)/FimV_(HubP) complex, samples prepared at 1 µM, low-salt HEPES buffer (20 mM HEPES, 50 mM NaCl, 50 mM KCl, 5 mM MgCl2, pH 7.5), room temperature; conditions: both partners purified
T3 chain: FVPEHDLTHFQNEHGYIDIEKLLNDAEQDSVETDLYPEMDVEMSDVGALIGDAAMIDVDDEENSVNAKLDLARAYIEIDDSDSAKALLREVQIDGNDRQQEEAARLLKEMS

[5] = molecular target: T3, FimV domain of S. oneidensis HubP; test: BLI; biotinylated SoFimV held on streptavidin biosensors (BLITZ), SoGGDEF variants as analyte; medium salt HEPES buffer pH 7.5 for association only, high-salt Tris buffer pH 8 for association-dissociation; conditions: both partners purified
[6] = molecular target: B1; test: as above; conditions: both partners purified
[7] = molecular target: T4, SoGGDEF_(PdeB) Q525S (S. oneidensis, UniProt Q8EJM6 454-587, Q525S); test: BLI
T4 sequence: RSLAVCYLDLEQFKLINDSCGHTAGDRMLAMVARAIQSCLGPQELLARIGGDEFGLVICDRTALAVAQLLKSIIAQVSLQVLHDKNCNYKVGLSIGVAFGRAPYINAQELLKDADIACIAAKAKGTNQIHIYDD

[8] = molecular target: T5, SoGGDEF_(PdeB) K577S (S. oneidensis, UniProt Q8EJM6 454-587, K577S); test: BLI
T5 sequence: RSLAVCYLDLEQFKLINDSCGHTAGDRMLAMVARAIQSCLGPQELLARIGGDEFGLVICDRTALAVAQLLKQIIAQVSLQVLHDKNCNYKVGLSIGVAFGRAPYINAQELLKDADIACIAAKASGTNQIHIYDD

[9] = molecular target: T6, SoGGDEF_(PdeB) K575S (S. oneidensis, UniProt Q8EJM6 454-587, K575S); test: BLI
T6 sequence: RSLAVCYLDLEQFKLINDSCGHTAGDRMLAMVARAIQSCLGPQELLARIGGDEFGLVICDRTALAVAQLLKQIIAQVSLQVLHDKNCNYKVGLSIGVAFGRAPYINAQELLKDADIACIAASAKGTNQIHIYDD

[10] = molecular target: T7, SoGGDEF_(PdeB) E497S (S. oneidensis, UniProt Q8EJM6 454-587, E497S); test: BLI
T7 sequence: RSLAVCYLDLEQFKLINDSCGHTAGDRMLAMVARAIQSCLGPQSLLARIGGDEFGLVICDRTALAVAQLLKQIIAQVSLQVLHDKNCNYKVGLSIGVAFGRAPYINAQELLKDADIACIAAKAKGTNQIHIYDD

[11] = molecular target: T8, SoGGDEF_(PdeB) G494A (S. oneidensis, UniProt Q8EJM6 454-587, G494A); test: BLI
T8 sequence: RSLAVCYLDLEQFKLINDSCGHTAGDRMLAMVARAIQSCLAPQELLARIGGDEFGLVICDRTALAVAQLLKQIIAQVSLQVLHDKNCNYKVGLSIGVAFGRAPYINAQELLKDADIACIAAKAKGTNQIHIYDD

## S. putrefaciens PdeB-mVenus K527E/Q528S (natural protein)
[1]
  single-molecule tracking of PdeB-mVenus K527E/Q528S in S. putrefaciens cells: share of static molecules: 61%

## MBP-GGDEF_(PdeB), GGDEF domain of S. putrefaciens PdeB (domain or fragment)
[1]
  single-molecule tracking of PdeB-mVenus in S. putrefaciens cells: share of molecules statically confined to the cell pole: 84%

## Nc1nc2c(ncn2[C@@H]2O[C@@H]3CO[P@](=O)(O)O[C@H]4[C@@H](O)[C@H](n5cnc6c(=O)[nH]c(N)nc65)O[C@@H]4CO[P@](=O)(O)O[C@H]3[C@H]2O)c(=O)[nH]1 [c-di-GMP]
[2]
  Kd: 9 µM
[3]
  Kd: 4 µM

## B1
[4]
  stoichiometry N: ~1 GGDEF per FimV (2:2)

B2: SoGGDEF_(PdeB) K577S (domain or fragment, S. oneidensis, UniProt Q8EJM6 454-587, looked up)
chain: RSLAVCYLDLEQFKLINDSCGHTAGDRMLAMVARAIQSCLGPQELLARIGGDEFGLVICDRTALAVAQLLKQIIAQVSLQVLHDKNCNYKVGLSIGVAFGRAPYINAQELLKDADIACIAAKASGTNQIHIYDD
notes: GGDEF domain of PdeB of Shewanella oneidensis with K577S; Variant of m1; the methods of the pull-down call the GGDEF variants MBP-tagged; source: E. coli BL21(DE3), pET24c, purified (His Trap, SEC)
[5]
  fold increase of KD against the wild type: 10 fold

B3: SoGGDEF_(PdeB) K575S (domain or fragment, S. oneidensis, UniProt Q8EJM6 454-587, looked up)
chain: RSLAVCYLDLEQFKLINDSCGHTAGDRMLAMVARAIQSCLGPQELLARIGGDEFGLVICDRTALAVAQLLKQIIAQVSLQVLHDKNCNYKVGLSIGVAFGRAPYINAQELLKDADIACIAASAKGTNQIHIYDD
notes: GGDEF domain of PdeB of Shewanella oneidensis with K575S; Variant of m1; the methods of the pull-down call the GGDEF variants MBP-tagged; source: E. coli BL21(DE3), pET24c, purified (His Trap, SEC)
[5]
  fold increase of KD against the wild type: 100 fold

B4: FimV domain of S. oneidensis HubP (domain or fragment)
chain: FVPEHDLTHFQNEHGYIDIEKLLNDAEQDSVETDLYPEMDVEMSDVGALIGDAAMIDVDDEENSVNAKLDLARAYIEIDDSDSAKALLREVQIDGNDRQQEEAARLLKEMS
modifications: biotinylated with EZ-Link NHS-PEG4-biotin (for the BLI assay only)
[6]
  Kd: ~200 nM
[7]
  Kd: 592 nM
[8]
  Kd: 2720 nM
[9]
  Kd: 22 µM
[10]
  Kd: 299 nM
[11]
  Kd: 835 nM
